These results are taken from paper doi:10.1101/2025.06.14.659634 (bioRxiv, 2025).

Series [1] concerns the molecule itself. As to the kind of experiment: glycerol density gradient centrifugation.
The series “cryo-EM structure” deals with the molecule itself. Put plainly: cryo-EM structure.

B1: erlin2 with a C-terminal Flag tag, overexpressed alone (natural protein, human, UniProt O94905 1-339, looked up)
chain: MAQLGAVVAVASSFFCASLFSAVHKIEEGHIGVYYRGGALLTSTSGPGFHLMLPFITSYKSVQTTLQTDEVKNVPCGTSGGVMIYFDRIEVVNFLVPNAVYDIVKNYTADYDKALIFNKIHHELNQFCSVHTLQEVYIELFDQIDENLKLALQQDLTSMAPGLVIQAVRVTKPNIPEAIRRNYELMESEKTKLLIAAQKQKVVEKEAETERKKALIEAEKVAQVAEITYGQKVMEKETEKKISEIEDAAFLAREKAKADAECYTAMKIAEANKLKLTPEYLQLMKYKAIASNSKIYFGKDIPNMFMDSAGSVSKQFEGLADKLSFGLEDEPLETATKEN
B1: the binding result in series [1] is on record as “binds”.

B2: erlin1 with a C-terminal Flag tag, overexpressed alone (natural protein, human, UniProt O75477 1-348, looked up)
chain: MNMTQARVLVAAVVGLVAVLLYASIHKIEEGHLAVYYRGGALLTSPSGPGYHIMLPFITTFRSVQTTLQTDEVKNVPCGTSGGVMIYIDRIEVVNMLAPYAVFDIVRNYTADYDKTLIFNKIHHELNQFCSAHTLQEVYIELFDQIDENLKQALQKDLNLMAPGLTIQAVRVTKPKIPEAIRRNFELMEAEKTKLLIAAQKQKVVEKEAETERKKAVIEAEKIAQVAKIRFQQKVMEKETEKRISEIEDAAFLAREKAKADAEYYAAHKYATSNKHKLTPEYLELKKYQAIASNSKIYFGSNIPNMFVDSSCALKYSDIRTGRESSLPSKEALEPSGENVIQNKESTG
Take B2: the binding result in series [1] is on record as “binds”.

B3: erlin1 fused with a twin-Strep tag, co-expressed with erlin2 through a P2A sequence (natural protein, human, UniProt O75477 1-348, looked up)
chain: MNMTQARVLVAAVVGLVAVLLYASIHKIEEGHLAVYYRGGALLTSPSGPGYHIMLPFITTFRSVQTTLQTDEVKNVPCGTSGGVMIYIDRIEVVNMLAPYAVFDIVRNYTADYDKTLIFNKIHHELNQFCSAHTLQEVYIELFDQIDENLKQALQKDLNLMAPGLTIQAVRVTKPKIPEAIRRNFELMEAEKTKLLIAAQKQKVVEKEAETERKKAVIEAEKIAQVAKIRFQQKVMEKETEKRISEIEDAAFLAREKAKADAEYYAAHKYATSNKHKLTPEYLELKKYQAIASNSKIYFGSNIPNMFVDSSCALKYSDIRTGRESSLPSKEALEPSGENVIQNKESTG
modifications: N108 glycosylated (seen in the density map); intramolecular disulfide bond C78-C130
In the case of B3, the binding result in the series “cryo-EM structure” is on record as “binds”.
